Literature values, collected in US7744870B1, “ST receptor binding compounds and methods of using the same” (Thomas Jefferson University, priority 1993, dated 2010).
Ends that are not written are not given here.

Assays:
[1] = biological target: T1, ST receptor (Homo sapiens, UniProt P25092); conditions: reported in cited literature; cited from earlier work
T1 construct: a preparation of ST receptors (e.g. intestinal membranes from rat intestine, human intestine, T84 cells); from tissue; host or cells: human intestinal membranes
T1 sequence (P25092 24-1073): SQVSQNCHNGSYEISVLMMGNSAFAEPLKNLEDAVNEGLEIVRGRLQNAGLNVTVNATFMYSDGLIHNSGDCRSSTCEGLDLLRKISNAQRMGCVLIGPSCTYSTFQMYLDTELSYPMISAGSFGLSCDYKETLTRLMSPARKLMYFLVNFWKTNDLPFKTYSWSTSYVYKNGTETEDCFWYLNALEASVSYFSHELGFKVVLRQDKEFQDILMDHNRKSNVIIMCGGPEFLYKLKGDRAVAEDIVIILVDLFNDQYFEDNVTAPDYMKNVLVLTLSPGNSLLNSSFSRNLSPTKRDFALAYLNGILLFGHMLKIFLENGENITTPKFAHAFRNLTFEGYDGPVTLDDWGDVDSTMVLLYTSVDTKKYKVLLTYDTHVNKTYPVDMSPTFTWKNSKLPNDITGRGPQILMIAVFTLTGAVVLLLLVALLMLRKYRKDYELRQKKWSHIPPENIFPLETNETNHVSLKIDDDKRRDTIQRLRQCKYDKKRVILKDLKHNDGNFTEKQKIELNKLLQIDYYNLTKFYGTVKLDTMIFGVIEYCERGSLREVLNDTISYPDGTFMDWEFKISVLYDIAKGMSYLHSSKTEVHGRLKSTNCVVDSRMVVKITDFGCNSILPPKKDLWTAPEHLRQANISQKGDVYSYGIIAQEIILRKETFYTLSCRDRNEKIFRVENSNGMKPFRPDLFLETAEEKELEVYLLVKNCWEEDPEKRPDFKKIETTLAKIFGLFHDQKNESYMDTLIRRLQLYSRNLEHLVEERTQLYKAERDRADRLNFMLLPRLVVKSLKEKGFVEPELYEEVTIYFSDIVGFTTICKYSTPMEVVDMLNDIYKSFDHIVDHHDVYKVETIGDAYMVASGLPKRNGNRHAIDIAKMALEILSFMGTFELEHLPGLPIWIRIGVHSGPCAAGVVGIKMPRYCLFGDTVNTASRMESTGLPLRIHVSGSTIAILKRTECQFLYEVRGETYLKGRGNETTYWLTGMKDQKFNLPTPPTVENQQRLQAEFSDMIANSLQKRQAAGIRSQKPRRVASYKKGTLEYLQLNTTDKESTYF

[2] = biological target: guanylate cyclase (Homo sapiens, UniProt P25092); conditions: relative to native ST; cited from earlier work
Chain of guanylate cyclase (P25092 24-1073): as above

SEQ ID NO:47: 16 amino acid peptide derived from V. cholerae (IDCCICCNPACFGCLN; listed as Vibrio cholerae)
binds to the ST receptor [1]: binds to the ST receptor

SEQ ID NO:48: 18 amino acid peptide derived from Y. enterocolitica (SSDWDCCDVCCNPACAGC; listed as Yersinia enterocolitica)
binds to the ST receptor [1]: binds to the ST receptor

guanylin (PGTCEICAYAACTGC; ends and bridges not checked; cysteine pairing not given here; UniProt Q02747 101-115, looked up)
binds to the ST receptor [1]: binds to ST receptors
activates guanylate cyclase at a level less than native ST [2]: 10- to 100 fold
